Measurements as given in article PMC3939451.

B1: ABCG5: N584Q (protein)
parent chain: MGDLSSLTPGGSMGLQVNRGSQSSLEGAPATAPEPHSLGILHASYSVSHRVRPWWDITSCRQQWTRQILKDVSLYVESGQIMCILGSSGSGKTTLLDAMSGRLGRAGTFLGEVYVNGRALRREQFQDCFSYVLQSDTLLSSLTVRETLHYTALLAIRRGNPGSFQKKVEAVMAELSLSHVADRLIGNYSLGGISTGERRRVSIAAQLLQDPKVMLFDEPTTGLDCMTANQIVVLLVELARRNRIVVLTIHQPRSELFQLFDKIAILSFGELIFCGTPAEMLDFFNDCGYPCPEHSNPFDFYMDLTSVDTQSKEREIETSKRVQMIESAYKKSAICHKTLKNIERMKHLKTLPMVPFKTKDSPGVFSKLGVLLRRVTRNLVRNKLAVITRLLQNLIMGLFLLFFVLRVRSNVLKGAIQDRVGLLYQFVGATPYTGMLNAVNLFPVLRAVSDQESQDGLYQKWQMMLAYALHVLPFSVVATMIFSSVCYWTLGLHPEVARFGYFSAALLAPHLIGEFLTLVLLGIVQNPNIVNSVVALLSIAGVLVGSGFLRNIQEMPIPFKIISYFTFQKYCSEILVVNEFYGLNFTCGSSNVSVTTNPMCAFTQGIQFIEKTCPGATSRFTMNFLILYSFIPALVILGIVVFKIRDHLISR
B2: ABCG5: N591Q (protein)
parent chain: B1 parent chain
B3: ABCG5: N584Q/N591Q (protein)
parent chain: B1 parent chain
B4: ABCG8: N619Q (protein)
parent chain: MAGKAAEERGLPKGATPQDTSGLQDRLFSSESDNSLYFTYSGQPNTLEVRDLNYQVDLASQVPWFEQLAQFKMPWTSPSCQNSCELGIQNLSFKVRSGQMLAIIGSSGCGRASLLDVITGRGHGGKIKSGQIWINGQPSSPQLVRKCVAHVRQHNQLLPNLTVRETLAFIAQMRLPRTFSQAQRDKRVEDVIAELRLRQCADTRVGNMYVRGLSGGERRRVSIGVQLLWNPGILILDEPTSGLDSFTAHNLVKTLSRLAKGNRLVLISLHQPRSDIFRLFDLVLLMTSGTPIYLGAAQHMVQYFTAIGYPCPRYSNPADFYVDLTSIDRRSREQELATREKAQSLAALFLEKVRDLDDFLWKAETKDLDEDTCVESSVTPLDTNCLPSPTKMPGAVQQFTTLIRRQISNDFRDLPTLLIHGAEACLMSMTIGFLYFGHGSIQLSFMDTAALLFMIGALIPFNVILDVISKCYSERAMLYYELEDGLYTTGPYFFAKILGELPEHCAYIIIYGMPTYWLANLRPGLQPFLLHFLLVWLVVFCCRIMALAAAALLPTFHMASFFSNALYNSFYLAGGFMINLSSLWTVPAWISKVSFLRWCFEGLMKIQFSRRTYKMPLGNLTIAVSGDKILSVMELDSYPLYAIYLIVIGLSGGFMVLYYVSLRFIKQKPSQDW

What was measured:
[1] = steady-state immunoblot, HEK293; conditions: glycan lost
[2] = CHX chase, immunoblot, percent remaining; conditions: glycan lost; control: WT-ABCG8

Protein	expression_or_secretion ([1]; control: WT-ABCG5)	degradation_or_half_life [2]	expression_or_secretion ([1]; control: WT-ABCG8)
B1	decreases	–	–
B2	decreases	–	–
B3	decreases	–	–
B4	–	decreases, 44.40% vs. 43.95% at 2 hrs; 26.01% vs. 29.36% at 4 hrs	decreases
